Measurements as given in patent publication US20250258178A1 (SHIONOGI, published 2025).

T1: human histidine-rich glycoprotein (HRG), purified from human plasma (human, UniProt P04196 19-525)
T1 construct: also called human purified HRG; human purified HRG protein
T1 sequence: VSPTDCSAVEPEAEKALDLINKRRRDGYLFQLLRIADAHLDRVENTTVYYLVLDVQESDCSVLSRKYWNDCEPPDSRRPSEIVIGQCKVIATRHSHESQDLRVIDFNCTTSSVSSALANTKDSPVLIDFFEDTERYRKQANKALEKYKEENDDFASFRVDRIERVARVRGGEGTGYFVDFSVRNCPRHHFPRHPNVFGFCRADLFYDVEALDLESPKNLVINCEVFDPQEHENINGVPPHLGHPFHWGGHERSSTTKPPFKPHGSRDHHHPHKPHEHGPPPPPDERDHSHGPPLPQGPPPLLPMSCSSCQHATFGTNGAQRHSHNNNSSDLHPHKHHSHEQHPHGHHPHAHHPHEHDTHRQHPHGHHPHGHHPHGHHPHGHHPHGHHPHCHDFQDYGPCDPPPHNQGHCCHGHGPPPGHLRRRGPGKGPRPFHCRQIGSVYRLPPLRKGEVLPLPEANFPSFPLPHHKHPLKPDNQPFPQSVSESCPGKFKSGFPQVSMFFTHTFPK


Columns and labels:
[1] = target: T1, human histidine-rich glycoprotein …; experiment: sandwich ELISA, HRG captured by solid phase 3-4E
Experimental: (§1) The capture antibody solution was dispensed at 25 μL per well into 384-well Maxisorp plates (NUNC), and the plates were incubated at room temperature for 3 hours. The plates were washed twice with 120 μL of washing solution per well (0.05% Tween 20-containing PBS). A blocking solution (1% BSA-containing PBS) was dispensed at 30 μL per well, and the plates were incubated at room temperature for 3 hours. The blocking solution was removed followed by dispensing the standard substance for evaluation at 20 μL per well (n=2), and the plates were incubated at room temperature for 3 hours. After washing the plates four times with the washing solution as described above, the solution of each detector antibody was dispensed at 10 μL per well, followed by dispensing a horseradish peroxidase-streptavidin solution (0.05 μg/mL) at 10 μL per well, and the plates were incubated at room temperature for 1 hour. After washing the plates four times with the washing solution as described above, a chromogenic substrate solution (TMB (3,3′,5,5′-tetramethylbenzidine)) was dispensed at 20 μL per well followed by incubating the plates at room temperature for 10 minutes, then a reaction stop solution 0.5 M H₂SO₄ was added at 20 μL/well, and the absorbance at 450 nm was measured.
(§2) The results regarding the evaluation of combinations chosen from 21 types of anti-HRG monoclonal antibodies are shown in Table 1. In Table 1, the absorbance at a wavelength of 450 nm of each combination was determined as follows: less than 1.0 OD: −, 1.0 OD or more and less than 2.0 OD: +, 2.0 OD or more and less than 3.0 OD: ++, and 3.0 OD or more: +++. The combinations of antibodies which could construct a sandwich ELISA system having enough level of absorbance change were 86 sets evaluated as ++ or +++ in Table 1.

[2] = target: T1, human histidine-rich glycoprotein …; experiment: sandwich ELISA, HRG captured by solid phase 13-2G
Experimental: as §1, §2

[3] = target: T1, human histidine-rich glycoprotein …; experiment: sandwich ELISA, HRG captured by solid phase 19-1C
Experimental: as §1, §2

[4] = target: T1, human histidine-rich glycoprotein …; experiment: sandwich ELISA, HRG captured by solid phase 31-1H
Experimental: as §1, §2

[5] = target: T1, human histidine-rich glycoprotein …; experiment: sandwich ELISA, HRG captured by solid phase 32-4C
Experimental: as §1, §2

[6] = target: T1, human histidine-rich glycoprotein …; experiment: sandwich ELISA, HRG captured by solid phase 65-3A
Experimental: as §1, §2

[7] = target: T1, human histidine-rich glycoprotein …; experiment: sandwich ELISA, HRG captured by solid phase 69-1A
Experimental: as §1, §2

[8] = target: T1, human histidine-rich glycoprotein …; experiment: sandwich ELISA, HRG captured by solid phase 81-2C
Experimental: as §1, §2

[9] = target: T1, human histidine-rich glycoprotein …; experiment: sandwich ELISA, HRG captured by solid phase 88-2E
Experimental: as §1, §2

[10] = target: T1, human histidine-rich glycoprotein …; experiment: sandwich ELISA, HRG captured by solid phase 93-4C
Experimental: as §1, §2

[11] = target: T1, human histidine-rich glycoprotein …; experiment: sandwich ELISA, HRG captured by solid phase 50-6C-2A
Experimental: as §1, §2

[12] = target: T1, human histidine-rich glycoprotein …; experiment: sandwich ELISA, HRG captured by solid phase 67-8A-5F
Experimental: as §1, §2

[13] = target: T1, human histidine-rich glycoprotein …; experiment: sandwich ELISA, HRG captured by solid phase 35-3G-10C
Experimental: as §1, §2

[14] = target: T1, human histidine-rich glycoprotein …; experiment: sandwich ELISA, HRG captured by solid phase 94-7A-3C-3D
Experimental: as §1, §2

[15] = target: T1, human histidine-rich glycoprotein …; experiment: sandwich ELISA, HRG captured by solid phase 6-12A-10B-9G
Experimental: as §1, §2

absorbance at 450 nm [1]	absorbance at 450 nm (OD450) [2]	absorbance at 450 nm [3]	absorbance at 450 nm [4]	absorbance at 450 nm [5]	absorbance at 450 nm (OD450) [6]	absorbance at 450 nm [7]	absorbance at 450 nm [8]	absorbance at 450 nm [9]	absorbance at 450 nm (OD450) [10]	absorbance at 450 nm (OD450) [11]	absorbance at 450 nm (OD450) [12]	absorbance at 450 nm [13]	absorbance at 450 nm [14]	absorbance at 450 nm (OD450) [15]	absorbance at 450 nm (OD450) [1]	absorbance at 450 nm [2]	absorbance at 450 nm [6]	absorbance at 450 nm [11]	absorbance at 450 nm [12]	Binder
< 1 OD	2 to 3 od	< 1 OD	< 1 OD	< 1 OD	≥ 3 od	< 1 OD	< 1 OD	< 1 OD	1 to 2 od	≥ 3 od	≥ 3 od	< 1 OD	< 1 OD	≥ 3 od	–	–	–	–	–	anti-HRG monoclonal antibody 75-2D (antibody, V domains shown, Mouse hybridoma monoclonal; also called clone No. 75-2D) VH: QVQLQQSGAELMKPGASVKISCKATGYTFSSYWIEWVKQRPGHGLEWIGEILPGSGRTNYNEKFKGKATFTADTSSNTAYMQLSSLTSEDSAVYYCARYSYFYYFDYWGQGTTLTVSS VL: DNVLTQSPAIMSASLGERVTMTCTASSSVSSSYLHWYQQKPGSSPKLWIYSTSNLASGVPARFSGSGSGTSYSLTISSMEAEDAATYYCHQYHRSPWTFGGGTKLEIK
–	–	< 1 OD	< 1 OD	< 1 OD	–	< 1 OD	< 1 OD	< 1 OD	1 to 2 od	–	–	< 1 OD	< 1 OD	2 to 3 od	≥ 3 od	< 1 OD	< 1 OD	< 1 OD	< 1 OD	anti-HRG monoclonal antibody 69-1A (antibody, V domains shown, Mouse hybridoma monoclonal; also called clone No. 69-1A) VH: EVKLEESGGGLVQPGGSMKLSCAASGFTFSDAWMDWVRQSPEKGLEWVAEIRSKANNHGTYYAESVKGRFTISRDDSKSSVYLRMNSLSAEDTGIYYCTRPFAYWGQGTLVTVSA VL: DVVVTQTPLSLPVSLGDQASISCRSSQSLVHIDGNTYFHWYVQKPGQSPKLLIYKVSNRFSGVPDRFSGSGSGTDFTLKISRVEAEDLGVYFCSQSTHVPLTFGAGTKLELK
